To fix the notation:
B1: glmS ribozyme (parent)
chain: AUAAAAGCGCCAGAACUACAGAAAUGUAGUUGACGAGGAGGAGGUUUAUCGAAUUUUCGGCGGAUGCCUCCAAA

± gives the standard error. This sample holds only a part of the variants without activity.

The first data set covers variants of B1. Put plainly: self-cleavage kobs at 10000 uM GlcN6P; higher = faster cleavage; RNA array. The following applies: with glucosamine-6-phosphate. The gist of the method: (§1)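 Barcoded ribozyme variants, transcribed in situ by E. coli RNA polymerase on sequenced MiSeq chips, were followed via a hybridised Cy3 probe at 37 °C. Glucosamine-6-phosphate ranged from 40 μM to 10 mM in HEPES/KCl/Mg(OAc)2 buffer. kobs came from decay fits to per-tile medians, and kcat and KM from weighted Michaelis–Menten fits.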
For the variant U30C G32C U47G C50G A53U A64G C68A C70A, the “self-cleavage kobs at 10000 uM GlcN6P” value came out at 0.000334 ± 8.3e-05 s⁻¹.

In the case of C8U G41U A48U C71G, the “self-cleavage kobs at 10000 uM GlcN6P” value is under 1e-05 s⁻¹.

As to A12U G37C U45A A48U C68U, the “self-cleavage kobs at 10000 uM GlcN6P” value was under 1e-05 s⁻¹.

Take A36C G43U U56C U57A C67G: the “self-cleavage kobs at 10000 uM GlcN6P” value is under 1e-05 s⁻¹.

Turning to C10U U49G C61U, the “self-cleavage kobs at 10000 uM GlcN6P” value was under 1e-05 s⁻¹.

C11A U30C A39G: the “self-cleavage kobs at 10000 uM GlcN6P” value stood at 0.000114 ± 2.3e-05 s⁻¹.

Turning to A14C A52U A53C, the “self-cleavage kobs at 10000 uM GlcN6P” value was under 1e-05 s⁻¹.

As for C11G A39U G44U A48C, the “self-cleavage kobs at 10000 uM GlcN6P” value is under 1e-05 s⁻¹.

Take A14C U45C A64G G66A: the “self-cleavage kobs at 10000 uM GlcN6P” value is 0.000542 ± 9.2e-05 s⁻¹.

Turning to G29U G41U U45C C70U, the “self-cleavage kobs at 10000 uM GlcN6P” value came out at 0.000108 ± 2.4e-05 s⁻¹.

As to A33C G62C C70U, the “self-cleavage kobs at 10000 uM GlcN6P” value is under 1e-05 s⁻¹.

Turning to A15G U31A A36G C58U, the “self-cleavage kobs at 10000 uM GlcN6P” value is under 1e-05 s⁻¹.

With G29A G66U C68U, the “self-cleavage kobs at 10000 uM GlcN6P” value worked out at 3.63e-05 ± 1.6e-05 s⁻¹.

Take C10A G29U U55G C68G: the “self-cleavage kobs at 10000 uM GlcN6P” value was 3.81e-05 ± 1.8e-05 s⁻¹.

As to A12U G13U G29C, the “self-cleavage kobs at 10000 uM GlcN6P” value was determined as 3.79e-05 ± 1.5e-05 s⁻¹.

For the variant G13C G35U U47C A48C C61G C70U, the “self-cleavage kobs at 10000 uM GlcN6P” value was under 1e-05 s⁻¹.

Turning to A12U U30G A36U G41U A52U, the “self-cleavage kobs at 10000 uM GlcN6P” value was under 1e-05 s⁻¹.

Regarding A6G A33C A64G, the “self-cleavage kobs at 10000 uM GlcN6P” value was under 1e-05 s⁻¹.

On to G29U C34A G59A U65C, for which the “self-cleavage kobs at 10000 uM GlcN6P” value is under 1e-05 s⁻¹.

As to A14C G37A U45A U49A C50A C58U, the “self-cleavage kobs at 10000 uM GlcN6P” value was under 1e-05 s⁻¹.

Consider G37C U46A G60U, for which the “self-cleavage kobs at 10000 uM GlcN6P” value is under 1e-05 s⁻¹.

A6G G29U G43C C61U C67U: the “self-cleavage kobs at 10000 uM GlcN6P” value is under 1e-05 s⁻¹.

With C16U U54A C70G, the “self-cleavage kobs at 10000 uM GlcN6P” value was 0.000121 ± 2.5e-05 s⁻¹.

Regarding G44U A64U C67G, the “self-cleavage kobs at 10000 uM GlcN6P” value amounted to 6.97e-05 ± 1.6e-05 s⁻¹.

In the case of G40A U69C, the “self-cleavage kobs at 10000 uM GlcN6P” value stood at 5.59e-05 ± 1.9e-05 s⁻¹.

With G13C A33G G41U, the “self-cleavage kobs at 10000 uM GlcN6P” value was under 1e-05 s⁻¹.

In the case of C16U G40U G66U, the “self-cleavage kobs at 10000 uM GlcN6P” value was found to be 4.28e-05 ± 1.2e-05 s⁻¹.

On to U30C G32A C70G, for which the “self-cleavage kobs at 10000 uM GlcN6P” value came to 7.6e-05 ± 1.7e-05 s⁻¹.

U17A A18C C19A A20G A52G U57G C67A: the “self-cleavage kobs at 10000 uM GlcN6P” value was 8.22e-05 ± 1.7e-05 s⁻¹.

C11U C50G C70G: the “self-cleavage kobs at 10000 uM GlcN6P” value stood at 3.88e-05 ± 1.4e-05 s⁻¹.

Regarding G35C A39C G41U U49G, the “self-cleavage kobs at 10000 uM GlcN6P” value is under 1e-05 s⁻¹.

Turning to A33G C58U C67U, the “self-cleavage kobs at 10000 uM GlcN6P” value is under 1e-05 s⁻¹.

Regarding G7C A14G A39C A48G A53U, the “self-cleavage kobs at 10000 uM GlcN6P” value was under 1e-05 s⁻¹.

Turning to A15C A39G A52G, the “self-cleavage kobs at 10000 uM GlcN6P” value is 0.000495 ± 8.8e-05 s⁻¹.

Take A14U G40C U46C A53G C71G: the “self-cleavage kobs at 10000 uM GlcN6P” value turned out to be 0.00202 ± 0.00042 s⁻¹.

As to G13U C50G C70U, the “self-cleavage kobs at 10000 uM GlcN6P” value is 5.49e-05 ± 1.2e-05 s⁻¹.

For C10G G13A G41C C50U C67A, the “self-cleavage kobs at 10000 uM GlcN6P” value is under 1e-05 s⁻¹.

Take C8G G40C G59C C67G C71U: the “self-cleavage kobs at 10000 uM GlcN6P” value is under 1e-05 s⁻¹.

Regarding G38C G43C G59C, the “self-cleavage kobs at 10000 uM GlcN6P” value is under 1e-05 s⁻¹.

Consider G7U U47A U57G, for which the “self-cleavage kobs at 10000 uM GlcN6P” value was under 1e-05 s⁻¹.

With G32A U57C G62A C67G, the “self-cleavage kobs at 10000 uM GlcN6P” value was under 1e-05 s⁻¹.

G35C G37A C68G: the “self-cleavage kobs at 10000 uM GlcN6P” value worked out at 4.58e-05 ± 2e-05 s⁻¹.

With A39C G51C G59C, the “self-cleavage kobs at 10000 uM GlcN6P” value was under 1e-05 s⁻¹.

For G7C U55G U56C U69A, the “self-cleavage kobs at 10000 uM GlcN6P” value is under 1e-05 s⁻¹.

In the case of A33C G37U, the “self-cleavage kobs at 10000 uM GlcN6P” value is under 1e-05 s⁻¹.

Consider G32U C34A G37U, for which the “self-cleavage kobs at 10000 uM GlcN6P” value is under 1e-05 s⁻¹.

C11A U30G C67A: the “self-cleavage kobs at 10000 uM GlcN6P” value came to 9.25e-05 ± 1.7e-05 s⁻¹.

In the case of G7A G9A A53G G60A U65A C67A, the “self-cleavage kobs at 10000 uM GlcN6P” value was 0.000102 ± 2.7e-05 s⁻¹.

U57C G62U: the “self-cleavage kobs at 10000 uM GlcN6P” value was under 1e-05 s⁻¹.

Take U45C U65G C67A: the “self-cleavage kobs at 10000 uM GlcN6P” value was 0.000786 ± 0.00016 s⁻¹.

For A15U U30G A48U A53G, the “self-cleavage kobs at 10000 uM GlcN6P” value stood at 0.000112 ± 3.6e-05 s⁻¹.

Consider G40A U45A G66A, for which the “self-cleavage kobs at 10000 uM GlcN6P” value was 0.00649 ± 0.0018 s⁻¹.

Take U56G C58U C67A: the “self-cleavage kobs at 10000 uM GlcN6P” value came out at 3.62e-05 ± 1.5e-05 s⁻¹.

As for G9U A14C A36C U46A, the “self-cleavage kobs at 10000 uM GlcN6P” value was under 1e-05 s⁻¹.

Turning to G40U U47C G51A G59U C71U, the “self-cleavage kobs at 10000 uM GlcN6P” value was under 1e-05 s⁻¹.

For the variant C19A C34G, the “self-cleavage kobs at 10000 uM GlcN6P” value was under 1e-05 s⁻¹.

Take A33C G51A A64U: the “self-cleavage kobs at 10000 uM GlcN6P” value was under 1e-05 s⁻¹.

As for A6U G7U G13U U31C, the “self-cleavage kobs at 10000 uM GlcN6P” value is under 1e-05 s⁻¹.

As for C11U A42C U55C C70U, the “self-cleavage kobs at 10000 uM GlcN6P” value is under 1e-05 s⁻¹.

C16U G38U A52C C58A: the “self-cleavage kobs at 10000 uM GlcN6P” value is under 1e-05 s⁻¹.

Consider C16A U46C U55C, for which the “self-cleavage kobs at 10000 uM GlcN6P” value is 7.09e-05 ± 1.6e-05 s⁻¹.

Regarding A12U G13U U31C G40A G44A U56A, the “self-cleavage kobs at 10000 uM GlcN6P” value was under 1e-05 s⁻¹.

As for A36U G37C C50U U57A U69G, the “self-cleavage kobs at 10000 uM GlcN6P” value was determined as 4.81e-05 ± 2.3e-05 s⁻¹.

Consider C10A G32A G60C G63A, for which the “self-cleavage kobs at 10000 uM GlcN6P” value was under 1e-05 s⁻¹.

On to A15G C67A C68A, for which the “self-cleavage kobs at 10000 uM GlcN6P” value worked out at 5.65e-05 ± 1.7e-05 s⁻¹.

As to A6G C34A A39G, the “self-cleavage kobs at 10000 uM GlcN6P” value is under 1e-05 s⁻¹.

For C11U G38C C50A A53G G60C C68U, the “self-cleavage kobs at 10000 uM GlcN6P” value is under 1e-05 s⁻¹.

As to A39G A52C, the “self-cleavage kobs at 10000 uM GlcN6P” value was found to be 2.99e-05 ± 1.2e-05 s⁻¹.

For the variant C16U G32A C58A U69A, the “self-cleavage kobs at 10000 uM GlcN6P” value amounted to 7.78e-05 ± 1.2e-05 s⁻¹.

As to C10G C71A, the “self-cleavage kobs at 10000 uM GlcN6P” value is under 1e-05 s⁻¹.

With A42C C61U C68U, the “self-cleavage kobs at 10000 uM GlcN6P” value is under 1e-05 s⁻¹.

The next data set covers variants of B1. Put plainly: self-cleavage kobs at 2500 uM GlcN6P; higher = faster cleavage; RNA array. The settings on record: with glucosamine-6-phosphate. The essentials:
as §1
Turning to U30A G40A C71A, the “self-cleavage kobs at 2500 uM GlcN6P” value is 0.00142 ± 0.0005 s⁻¹.

With C8U G38A C70A, the “self-cleavage kobs at 2500 uM GlcN6P” value is under 1e-05 s⁻¹.

For the variant C16G G32U G44A G60A, the “self-cleavage kobs at 2500 uM GlcN6P” value is under 1e-05 s⁻¹.

As for U30A C50G U56A C67U, the “self-cleavage kobs at 2500 uM GlcN6P” value amounted to 7.78e-05 ± 1.9e-05 s⁻¹.

Regarding A14U G40C U46C A53G C71G, the “self-cleavage kobs at 2500 uM GlcN6P” value came to 0.00101 ± 0.00038 s⁻¹.

On to G32U U55G C70U, for which the “self-cleavage kobs at 2500 uM GlcN6P” value stood at 0.000141 ± 5e-05 s⁻¹.

A14C A15C G38U: the “self-cleavage kobs at 2500 uM GlcN6P” value is under 1e-05 s⁻¹.

For the variant G32C A39U C50G A52C U57A A64U, the “self-cleavage kobs at 2500 uM GlcN6P” value was under 1e-05 s⁻¹.

With C8U A39U C67G, the “self-cleavage kobs at 2500 uM GlcN6P” value is under 1e-05 s⁻¹.

With G59U G62C C71A, the “self-cleavage kobs at 2500 uM GlcN6P” value is under 1e-05 s⁻¹.

Turning to A33U G40C U46G C50U, the “self-cleavage kobs at 2500 uM GlcN6P” value was under 1e-05 s⁻¹.

For the origin of these results see the supplement of paper PMC7125110.
